# Results taken from paper PMC10397247.
# T1: P4SN
# T1 chain: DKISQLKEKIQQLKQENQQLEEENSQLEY
# T2: 4H1347-bA
# T2 chain: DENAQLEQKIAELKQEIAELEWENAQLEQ
# T3: 4H145-bA
# T3 chain: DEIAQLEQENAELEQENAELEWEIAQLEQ
# T4: 4H2619-bA
# T4 chain: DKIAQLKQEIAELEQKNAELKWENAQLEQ
# T5: 4H2691-bA
# T5 chain: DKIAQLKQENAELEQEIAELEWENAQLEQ
# T6: 4H3070-bA
# T6 chain: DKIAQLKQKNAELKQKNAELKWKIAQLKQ
# T7: 4H342-bA
# T7 chain: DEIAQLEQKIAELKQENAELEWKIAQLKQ
# T8: 4H3632-bA
# T8 chain: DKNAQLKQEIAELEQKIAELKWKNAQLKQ
# T9: 4H496-bA
# T9 chain: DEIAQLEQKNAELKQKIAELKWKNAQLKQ
# T10: P10mS
# T10 chain: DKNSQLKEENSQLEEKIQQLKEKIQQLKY
# T11: P11mS
# T11 chain: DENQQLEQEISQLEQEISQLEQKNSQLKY
# T12: P12mS
# T12 chain: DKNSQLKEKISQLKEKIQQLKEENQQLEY
# T13: P3mS
# T13 chain: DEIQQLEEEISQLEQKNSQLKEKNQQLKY
# T14: P4mS
# T14 chain: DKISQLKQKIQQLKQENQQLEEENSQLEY
# T15: P5mS
# T15 chain: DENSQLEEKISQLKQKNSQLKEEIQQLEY
# T16: P6mS
# T16 chain: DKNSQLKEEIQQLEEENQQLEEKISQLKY
# T17: P7mS
# T17 chain: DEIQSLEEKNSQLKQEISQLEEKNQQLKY
# T18: P8mS
# T18 chain: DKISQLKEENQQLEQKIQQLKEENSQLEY
# T19: P9mS
# T19 chain: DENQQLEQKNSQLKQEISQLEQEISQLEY
# T20: Core_IINI-es_KEEE
# T20 chain: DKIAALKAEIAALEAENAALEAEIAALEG
# T21: 4H2750-AA
# T21 chain: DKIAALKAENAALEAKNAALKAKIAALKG
# T22: 4H2898-AA
# T22 chain: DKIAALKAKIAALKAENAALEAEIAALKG
# T23: 4H3020-AA
# T23 chain: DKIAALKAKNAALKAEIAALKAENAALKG
# T24: 4H3365-AA
# T24 chain: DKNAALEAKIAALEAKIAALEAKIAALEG
# T25: 4H355-AA
# T25 chain: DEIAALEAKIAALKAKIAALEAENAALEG
# T26: 4H3651-AA
# T26 chain: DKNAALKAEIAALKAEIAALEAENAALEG
# T27: 4H3705-AA
# T27 chain: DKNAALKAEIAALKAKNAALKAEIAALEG
# T28: 4H3782-AA
# T28 chain: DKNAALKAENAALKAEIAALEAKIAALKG
# T29: 4H465-AA
# T29 chain: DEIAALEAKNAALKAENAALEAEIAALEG
# T30: 4H486-AA
# T30 chain: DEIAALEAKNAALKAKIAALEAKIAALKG
# T31: 4H535-AA
# T31 chain: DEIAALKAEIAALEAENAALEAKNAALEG
# T32: 4H58-AA
# T32 chain: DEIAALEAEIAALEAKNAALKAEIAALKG
# T33: 4H895-AA
# T33 chain: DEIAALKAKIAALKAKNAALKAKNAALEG
# T34: 4H_APH
# T34 chain: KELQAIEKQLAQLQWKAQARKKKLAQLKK
# T35: 4H_BCR
# T35 chain: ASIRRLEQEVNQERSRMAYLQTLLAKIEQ
# T36: P1-AA-1HGe-A
# T36 chain: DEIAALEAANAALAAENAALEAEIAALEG
# T37: P1-AA-1HGe-D
# T37 chain: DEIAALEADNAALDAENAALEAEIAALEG
# T38: P1-AA-1HGe-H
# T38 chain: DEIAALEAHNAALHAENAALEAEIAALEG
# T39: P1-AA-1HGe-M
# T39 chain: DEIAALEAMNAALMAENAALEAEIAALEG
# T40: P1-AA-1HGe-Q
# T40 chain: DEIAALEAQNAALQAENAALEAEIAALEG
# T41: P1-AA-1HGe-R
# T41 chain: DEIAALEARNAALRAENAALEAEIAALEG
# T42: P1-AA-1HGe-S
# T42 chain: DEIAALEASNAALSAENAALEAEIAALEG
# T43: P1-AA-1HGe-T
# T43 chain: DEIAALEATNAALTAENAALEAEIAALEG
# T44: P1-AA-1HGe-W
# T44 chain: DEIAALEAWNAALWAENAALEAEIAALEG
# T45: P1-AA-1HGe-Y
# T45 chain: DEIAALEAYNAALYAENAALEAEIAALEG
# T46: P1-AA
# T46 chain: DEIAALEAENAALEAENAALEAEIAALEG
# B1: P3SN (peptide)
# chain: DEIQQLEEEISQLEQKNSELKEKNQELKY
# B2: 4H1347-bA (peptide)
# chain: DENAQLEQKIAELKQEIAELEWENAQLEQ
# B3: P10mS (peptide)
# chain: DKNSQLKEENSQLEEKIQQLKEKIQQLKY
# B4: Core_IINI-es_EKKK (peptide)
# chain: DEIAALEAKIAALKAKNAALKAKIAALKG
# B5: 4H2750-AA (peptide)
# chain: DKIAALKAENAALEAKNAALKAKIAALKG
# What was measured:
# P4SN [1] = molecular target: T1, P4SN; test: two-hybrid library CCNG1; conditions: mean of both orientations;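 note: natural log of median RNA to DNA barcode read ratio; higher means stronger binding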
# P4SN [2] = molecular target: T1, P4SN; test: two-hybrid library CCmax;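 note: natural log of median RNA to DNA barcode read ratio; higher means stronger binding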
# 4H1347-bA = molecular target: T2, 4H1347-bA; test: two-hybrid library CCNG1;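 note: natural log of median RNA to DNA barcode read ratio; higher means stronger binding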
# 4H145-bA = molecular target: T3, 4H145-bA; test: two-hybrid library CCNG1;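 note: natural log of median RNA to DNA barcode read ratio; higher means stronger binding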
# 4H2619-bA = molecular target: T4, 4H2619-bA; test: two-hybrid library CCNG1;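 note: natural log of median RNA to DNA barcode read ratio; higher means stronger binding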
# 4H2691-bA = molecular target: T5, 4H2691-bA; test: two-hybrid library CCNG1;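 note: natural log of median RNA to DNA barcode read ratio; higher means stronger binding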
# 4H3070-bA = molecular target: T6, 4H3070-bA; test: two-hybrid library CCNG1
# 4H342-bA = molecular target: T7, 4H342-bA; test: two-hybrid library CCNG1
# 4H3632-bA = molecular target: T8, 4H3632-bA; test: two-hybrid library CCNG1
# 4H496-bA = molecular target: T9, 4H496-bA; test: two-hybrid library CCNG1
# P10mS = molecular target: T10, P10mS; test: two-hybrid library CCNG1
# P11mS = molecular target: T11, P11mS; test: two-hybrid library CCNG1
# P12mS = molecular target: T12, P12mS; test: two-hybrid library CCNG1
# P3mS = molecular target: T13, P3mS; test: two-hybrid library CCNG1
# P4mS = molecular target: T14, P4mS; test: two-hybrid library CCNG1
# P5mS = molecular target: T15, P5mS; test: two-hybrid library CCNG1
# P6mS = molecular target: T16, P6mS; test: two-hybrid library CCNG1
# P7mS = molecular target: T17, P7mS; test: two-hybrid library CCNG1
# P8mS = molecular target: T18, P8mS; test: two-hybrid library CCNG1
# P9mS = molecular target: T19, P9mS; test: two-hybrid library CCNG1
# Core_IINI-es_KEEE = molecular target: T20, Core_IINI-es_KEEE; test: two-hybrid library CCmax; conditions: mean of both orientations
# 4H2750-AA = molecular target: T21, 4H2750-AA; test: two-hybrid library CCmax
# 4H2898-AA = molecular target: T22, 4H2898-AA; test: two-hybrid library CCmax; conditions: mean of both orientations
# 4H3020-AA = molecular target: T23, 4H3020-AA; test: two-hybrid library CCmax; conditions: mean of both orientations
# 4H3365-AA = molecular target: T24, 4H3365-AA; test: two-hybrid library CCmax; conditions: mean of both orientations
# 4H355-AA = molecular target: T25, 4H355-AA; test: two-hybrid library CCmax; conditions: mean of both orientations
# 4H3651-AA = molecular target: T26, 4H3651-AA; test: two-hybrid library CCmax; conditions: mean of both orientations
# 4H3705-AA = molecular target: T27, 4H3705-AA; test: two-hybrid library CCmax; conditions: mean of both orientations
# 4H3782-AA = molecular target: T28, 4H3782-AA; test: two-hybrid library CCmax; conditions: mean of both orientations
# 4H465-AA = molecular target: T29, 4H465-AA; test: two-hybrid library CCmax; conditions: mean of both orientations
# 4H486-AA = molecular target: T30, 4H486-AA; test: two-hybrid library CCmax; conditions: mean of both orientations
# 4H535-AA = molecular target: T31, 4H535-AA; test: two-hybrid library CCmax; conditions: mean of both orientations
# 4H58-AA = molecular target: T32, 4H58-AA; test: two-hybrid library CCmax; conditions: mean of both orientations
# 4H895-AA = molecular target: T33, 4H895-AA; test: two-hybrid library CCmax; conditions: mean of both orientations
# 4H_APH = molecular target: T34, 4H_APH; test: two-hybrid library CCmax; conditions: mean of both orientations
# 4H_BCR = molecular target: T35, 4H_BCR; test: two-hybrid library CCmax; conditions: mean of both orientations
# 4H_GCN4 = test: two-hybrid library CCmax; conditions: mean of both orientations
# 4H_GCN4, sequence (chain, as listed by the source): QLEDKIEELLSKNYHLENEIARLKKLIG
# GCN2_T = test: two-hybrid library CCmax
# P1-AA-1HGe-A = molecular target: T36, P1-AA-1HGe-A; test: two-hybrid library CCmax; conditions: mean of both orientations
# P1-AA-1HGe-D = molecular target: T37, P1-AA-1HGe-D; test: two-hybrid library CCmax; conditions: mean of both orientations
# P1-AA-1HGe-H = molecular target: T38, P1-AA-1HGe-H; test: two-hybrid library CCmax
# P1-AA-1HGe-M = molecular target: T39, P1-AA-1HGe-M; test: two-hybrid library CCmax; conditions: mean of both orientations
# P1-AA-1HGe-Q = molecular target: T40, P1-AA-1HGe-Q; test: two-hybrid library CCmax; conditions: mean of both orientations
# P1-AA-1HGe-R = molecular target: T41, P1-AA-1HGe-R; test: two-hybrid library CCmax; conditions: mean of both orientations
# P1-AA-1HGe-S = molecular target: T42, P1-AA-1HGe-S; test: two-hybrid library CCmax; conditions: mean of both orientations
# P1-AA-1HGe-T = molecular target: T43, P1-AA-1HGe-T; test: two-hybrid library CCmax; conditions: mean of both orientations
# P1-AA-1HGe-W = molecular target: T44, P1-AA-1HGe-W; test: two-hybrid library CCmax; conditions: mean of both orientations
# P1-AA-1HGe-Y = molecular target: T45, P1-AA-1HGe-Y; test: two-hybrid library CCmax; conditions: mean of both orientations
# P1-AA = molecular target: T46, P1-AA; test: two-hybrid library CCmax; conditions: mean of both orientations
binder,measurement,setting,value
B1,interaction score,P4SN [1],1.25
same,interaction score,P4SN [2],-0.993
B2,interaction score,4H1347-bA,-0.84
same,interaction score,4H145-bA,-0.0112
same,interaction score,4H2619-bA,-0.421
same,interaction score,4H2691-bA,-0.56
same,interaction score,4H3070-bA,-0.786
same,interaction score,4H342-bA,-0.567
same,interaction score,4H3632-bA,1.92
same,interaction score,4H496-bA,-0.596
B3,interaction score,P10mS,-0.344
same,interaction score,P11mS,0.347
same,interaction score,P12mS,0.126
same,interaction score,P3mS,-1.79
same,interaction score,P4mS,0.178
same,interaction score,P5mS,-1.28
same,interaction score,P6mS,-2.03
same,interaction score,P7mS,0.649
same,interaction score,P8mS,-0.478
same,interaction score,P9mS,-0.677
B4,interaction score,Core_IINI-es_KEEE,2.08
B5,interaction score,4H2750-AA,-1.55
same,interaction score,4H2898-AA,1.97
same,interaction score,4H3020-AA,-1.5
same,interaction score,4H3365-AA,-1.78
same,interaction score,4H355-AA,-0.643
same,interaction score,4H3651-AA,-1.22
same,interaction score,4H3705-AA,-0.91
same,interaction score,4H3782-AA,-0.13
same,interaction score,4H465-AA,2.28
same,interaction score,4H486-AA,1.13
same,interaction score,4H535-AA,-1.08
same,interaction score,4H58-AA,-0.465
same,interaction score,4H895-AA,-1.79
same,interaction score,4H_APH,-2.38
same,interaction score,4H_BCR,-1.7
same,interaction score,4H_GCN4,-1.33
same,interaction score,GCN2_T,-1.81
same,interaction score,P1-AA-1HGe-A,2.11
same,interaction score,P1-AA-1HGe-D,2.05
same,interaction score,P1-AA-1HGe-H,1.92
same,interaction score,P1-AA-1HGe-M,2.44
same,interaction score,P1-AA-1HGe-Q,2.33
same,interaction score,P1-AA-1HGe-R,2.26
same,interaction score,P1-AA-1HGe-S,1.86
same,interaction score,P1-AA-1HGe-T,2.06
same,interaction score,P1-AA-1HGe-W,2.15
same,interaction score,P1-AA-1HGe-Y,2.03
same,interaction score,P1-AA,1.56
